Key:
Test in all cases: two-hybrid library CCmax;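 note: natural log of median RNA to DNA barcode read ratio; higher means stronger binding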
[1] = molecular target: T1, 4H570-AA; conditions: mean of both orientations
T1 chain: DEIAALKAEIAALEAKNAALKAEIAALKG

[2] = molecular target: T2, 4H3865-AA; conditions: mean of both orientations
T2 chain: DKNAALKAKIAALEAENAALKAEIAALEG

[3] = molecular target: T3, 4H930-AA; conditions: mean of both orientations
T3 chain: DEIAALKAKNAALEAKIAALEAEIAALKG

[4] = molecular target: T4, 4H1579-AA
T4 chain: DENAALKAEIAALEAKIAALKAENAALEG

[5] = molecular target: T5, 4H3697-AA; conditions: mean of both orientations
T5 chain: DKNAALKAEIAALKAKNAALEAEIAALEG

[6] = molecular target: T6, 4H485-AA; conditions: mean of both orientations
T6 chain: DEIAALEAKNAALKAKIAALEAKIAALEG

[7] = molecular target: T7, 4H2253-AA; conditions: mean of both orientations
T7 chain: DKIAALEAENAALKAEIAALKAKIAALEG

[8] = molecular target: T8, 4H2698-AA; conditions: mean of both orientations
T8 chain: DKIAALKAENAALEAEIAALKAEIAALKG

[9] = molecular target: T9, 4H174-AA; conditions: mean of both orientations
T9 chain: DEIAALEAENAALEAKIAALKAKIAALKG

[10] = molecular target: T10, 4H2330-AA; conditions: mean of both orientations
T10 chain: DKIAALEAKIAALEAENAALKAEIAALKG

[11] = molecular target: T11, 4H2473-AA; conditions: mean of both orientations
T11 chain: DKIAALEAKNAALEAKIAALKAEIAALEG

[12] = molecular target: T12, 4H1626-AA; conditions: mean of both orientations
T12 chain: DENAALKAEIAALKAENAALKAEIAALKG

[13] = molecular target: T13, 4H3016-AA; conditions: mean of both orientations
T13 chain: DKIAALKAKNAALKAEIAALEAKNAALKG

[14] = molecular target: T14, 4H1877-AA; conditions: mean of both orientations
T14 chain: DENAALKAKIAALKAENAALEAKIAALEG

[15] = molecular target: T15, 4H94-AA; conditions: mean of both orientations
T15 chain: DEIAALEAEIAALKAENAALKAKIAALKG

[16] = molecular target: T16, 4H2389-AA; conditions: mean of both orientations
T16 chain: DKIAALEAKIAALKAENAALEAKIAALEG

[17] = molecular target: T17, 4H2162-AA; conditions: mean of both orientations
T17 chain: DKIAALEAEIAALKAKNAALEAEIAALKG

[18] = molecular target: T18, 4H2725-AA; conditions: mean of both orientations
T18 chain: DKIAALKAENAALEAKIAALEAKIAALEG

[19] = molecular target: T19, 4H797-AA; conditions: mean of both orientations
T19 chain: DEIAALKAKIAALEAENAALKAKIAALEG

[20] = molecular target: T20, 4H891-AA; conditions: mean of both orientations
T20 chain: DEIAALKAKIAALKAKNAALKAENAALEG

[21] = molecular target: T21, 4H310-AA; conditions: mean of both orientations
T21 chain: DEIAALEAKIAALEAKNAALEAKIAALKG

[22] = molecular target: T22, 4H3590-AA; conditions: mean of both orientations
T22 chain: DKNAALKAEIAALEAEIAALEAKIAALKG

[23] = molecular target: T23, 4H629-AA; conditions: mean of both orientations
T23 chain: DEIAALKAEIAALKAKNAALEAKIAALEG

[24] = molecular target: T24, 4H3395-AA; conditions: mean of both orientations
T24 chain: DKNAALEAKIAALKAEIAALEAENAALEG

[25] = molecular target: T25, 4H2438-AA; conditions: mean of both orientations
T25 chain: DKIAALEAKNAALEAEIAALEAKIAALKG

[26] = molecular target: T26, 4H536-AA; conditions: mean of both orientations
T26 chain: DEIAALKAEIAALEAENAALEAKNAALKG

[27] = molecular target: T27, 4H3009-AA; conditions: mean of both orientations
T27 chain: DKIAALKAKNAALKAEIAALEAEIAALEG

[28] = molecular target: T28, 4H710-AA; conditions: mean of both orientations
T28 chain: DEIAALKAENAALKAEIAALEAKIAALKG

[29] = molecular target: T29, 4H1597-AA; conditions: mean of both orientations
T29 chain: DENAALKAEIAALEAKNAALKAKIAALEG

[30] = molecular target: T30, 4H3753-AA; conditions: mean of both orientations
T30 chain: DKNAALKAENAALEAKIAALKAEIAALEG

[31] = molecular target: T31, 4H745-AA; conditions: mean of both orientations
T31 chain: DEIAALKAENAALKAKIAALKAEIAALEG

[32] = molecular target: T32, 4H2274-AA; conditions: mean of both orientations
T32 chain: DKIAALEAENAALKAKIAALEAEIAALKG

[33] = molecular target: T33, 4H3120-AA; conditions: mean of both orientations
T33 chain: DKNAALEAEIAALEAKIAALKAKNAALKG

[34] = molecular target: T34, 4H3165-AA; conditions: mean of both orientations
T34 chain: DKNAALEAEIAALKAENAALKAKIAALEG

[35] = molecular target: T35, 4H458-AA; conditions: mean of both orientations
T35 chain: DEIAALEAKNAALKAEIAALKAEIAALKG

[36] = molecular target: T36, 4H2649-AA; conditions: mean of both orientations
T36 chain: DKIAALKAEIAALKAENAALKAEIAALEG

[37] = molecular target: T37, 4H1864-AA; conditions: mean of both orientations
T37 chain: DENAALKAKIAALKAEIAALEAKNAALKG

[38] = molecular target: T38, 4H2109-AA; conditions: mean of both orientations
T38 chain: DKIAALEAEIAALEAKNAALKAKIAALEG

[39] = molecular target: T39, 4H909-AA; conditions: mean of both orientations
T39 chain: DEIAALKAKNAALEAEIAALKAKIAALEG

[40] = molecular target: T40, 4H1842-AA; conditions: mean of both orientations
T40 chain: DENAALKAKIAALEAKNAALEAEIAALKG

[41] = molecular target: T41, 4H850-AA; conditions: mean of both orientations
T41 chain: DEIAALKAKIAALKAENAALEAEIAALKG

[42] = molecular target: T42, 4H2865-AA
T42 chain: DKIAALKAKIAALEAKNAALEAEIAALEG

[43] = molecular target: T43, 4H3130-AA
T43 chain: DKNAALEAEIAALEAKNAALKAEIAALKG

[44] = molecular target: T44, 4H3381-AA; conditions: mean of both orientations
T44 chain: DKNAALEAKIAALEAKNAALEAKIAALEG

[45] = molecular target: T45, 4H171-AA; conditions: mean of both orientations
T45 chain: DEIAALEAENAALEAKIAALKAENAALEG

[46] = molecular target: T46, 4H3410-AA; conditions: mean of both orientations
T46 chain: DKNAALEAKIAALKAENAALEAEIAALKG

Binder: DENAALKAEIAALEAKIAALKAENAALEG [4H1579-AA]
- interaction score [1]: -0.453
- interaction score [2]: -1.22
- interaction score [3]: -1.7
- interaction score [4]: 0.482
- interaction score [5]: -1.92
- interaction score [6]: -0.986
- interaction score [7]: -1.23
- interaction score [8]: -1.29
- interaction score [9]: -0.805
- interaction score [10]: -1.81
- interaction score [11]: -1.09
- interaction score [12]: -1.19
- interaction score [13]: 0.0969
- interaction score [14]: -0.858
- interaction score [15]: -1.21
- interaction score [16]: -1.56
- interaction score [17]: -1.63
- interaction score [18]: -1.31
- interaction score [19]: -1.46
- interaction score [20]: -1
- interaction score [21]: -1.28
- interaction score [22]: 1.2
- interaction score [23]: -1.42
- interaction score [24]: 0.656
- interaction score [25]: -1.18
- interaction score [26]: 0.42
- interaction score [27]: -2.01
- interaction score [28]: -1.33
- interaction score [29]: -0.651
- interaction score [30]: 1.01
- interaction score [31]: 1.21
- interaction score [32]: -1.24
- interaction score [33]: 0.595
- interaction score [34]: -1.86
- interaction score [35]: -1.8
- interaction score [36]: -1.11
- interaction score [37]: 2.38
- interaction score [38]: 0.8
- interaction score [39]: -1.94
- interaction score [40]: -2.03
- interaction score [41]: -1.18
- interaction score [42]: -1.53
- interaction score [43]: -1.12
- interaction score [44]: -1.48
- interaction score [45]: -1.67
- interaction score [46]: -1.51

Reference: article PMC10397247
